According to US11994512B2, “Single-cell genomic methods to generate ex vivo cell systems that recapitulate in vivo biology with improved fidelity” (Massachusetts Institute of Technology, priority 2018, dated 2024):

B1: Q8C196 (protein, UniProt Q8C196 1-1500, looked up)
chain: MTRILTACKVVKTLKSGFGFANVTTKRQWDFSRPGIRLLSVKAKTAHIVLEDGTKMKGYSFGHPSSVAGEVVFNTGLGGYPEALTDPAYKGQILTMANPIIGNGGAPDTTARDELGLNKYMESDGIKVAGLLVLNYSNDYNHWLATKSLGQWLQEEKVPAIYGVDTRMLTKIIRDKGTMLGKIEFEGQSVDFVDPNKQNLIAEVSTKDVKVFGKGNPTKVVAVDCGIKNNVIRLLVKRGAEVHLVPWNHDFTQMEYDGLLIAGGPGNPALAQPLIQNVKKILESDRKEPLFGISTGNIITGLAAGAKSYKMSMANRGQNQPVLNITNRQAFITAQNHGYALDNTLPAGWKPLFVNVNDQTNEGIMHESKPFFAVQFHPEVSPGPTDTEYLFDSFFSLIKKGKGTTITSVLPKPALVASRVEVSKVLILGSGGLSIGQAGEFDYSGSQAVKAMKEENVKTVLMNPNIASVQTNEVGLKQADAVYFLPITPQFVTEVIKAERPDGLILGMGGQTALNCGVELFKRGVLKEYGVKVLGTSVESIMATEDRQLFSDKLNEINEKIAPSFAVESMEDALKAADTIGYPVMIRSAYALGGLGSGICPNKETLIDLGTKAFAMTNQILVERSVTGWKEIEYEVVRDADDNCVTVCNMENVDAMGVHTGDSVVVAPAQTLSNAEFQMLRRTSVNVVRHLGIVGECNIQFALHPTSMEYCIIEVNARLSRSSALASKATGYPLAFIAAKIALGIPLPEIKNVVSGKTSACFEPSLDYMVTKIPRWDLDRFHGTSSRIGSSMKSVGEVMAIGRTFEESFQKALRMCHPSVDGFTPRLPMNKEWPANLDLKKELSEPSSTRIYAIAKALENNMSLDEIVRLTSIDKWFLYKMRDILNMDKTLKGLNSDSVTEETLRKAKEIGFSDKQISKCLGLTEAQTRELRLKKNIHPWVKQIDTLAAEYPSVTNYLYVTYNGQEHDIKFDEHGIMVLGCGPYHIGSSVEFDWCAVSSIRTLRQLGKKTVVVNCNPETVSTDFDECDKLYFEELSLERILDIYHQEACNGCIISVGGQIPNNLAVPLYKNGVKIMGTSPLQIDRAEDRSIFSAVLDELKVAQAPWKAVNTLNEALEFANSVGYPCLLRPSYVLSGSAMNVVFSEDEMKRFLEEATRVSQEHPVVLTKFVEGAREVEMDAVGKEGRVISHAISEHVEDAGVHSGDATLMLPTQTISQGAIEKVKDATRKIAKAFAISGPFNVQFLVKGNDVLVIECNLRASRSFPFVSKTLGVDFIDVATKVMIGESIDEKRLPTLEQPIIPSDYVAIKAPMFSWPRLRDADPILRCEMASTGEVACFGEGIHTAFLKAMLSTGFKIPQKGILIGIQQSFRPRFLGVAEQLHNEGFKLFATEATSDWLNANNVPATPVAWPSQEGQNPSLSSIRKLIRDGSIDLVINLPNNNTKFVHDNYVIRRTAVDSGIALLTNFQVTKLFAEAVQKSRTVDSKSLFHYRQYSAGKAA
modifications: full-length
B2: Q8C2E4 (protein, UniProt Q8C2E4 1-695, looked up)
chain: MDLLRLSRLFSGPRPIGLSVLQHLDLVGSTRWTGGREGPARLRAAFCGSSSPLPLGSGNQKEMSSLCSDSSKLSTVAPQEEAEEESFGSLSGKFSSRRIFHKSTAQLYNLQLKEQGGEEEELEPRPWRGRRNTQYWYFFQCKRLIKEGKLAEALDLFERQMLKEERLQPLECNYTVLIGGCGRVGYLKKAFRLFNDMKKRDLEPSDATYTALFNVCAESPWKDSALQSALKLRQQLQARNFQLNLKTYHALLKVAAKCADLRLCLDVFKEIIQRGHAVTEETFCFLLVGCIQDKKTGFRQAMQVWRQMLSLGIKPSRHGYNLLLEAARDCGLGDPEVASRLLLTSQEETILLPPPKGRHMAGRKVQAKTVHGVSLRHVEALERQLFLEPSQKLEGPPALPEARVTSRTQPEVETTAEPGHTVALTPLASKPTHLELEVSLLSLGTLSPAVVSFGTVATPADRLALMGGLEGFLGKMTEHGLQPDIKTLTLLAEVVEPGSTAESSLLSVLDRHRVEADVTFFNTLIRKKSKLGDLEGAKALLPILAKKGIVPNLRTFCNLAIGCHRPRDGMQLLADMKKSQVSPNIHIYSTLINAALKKLDYTYLISILKDMRQNSVPVNEVVVRQLEFAAEYPPTFDRYKGKNTYLEKIDGFRAYYKQWLKAMPAEEAPHPWQEFQNKPVGDQDTTDKAGGLRDG
modifications: full-length
B3: Q8C159 (protein, UniProt Q8C159 1-568, looked up)
chain: MTEAEVGAEDLDTLLDELDYLPGHFHLEMQLNFEPRSPAQLRARDLKLQREGLRQELELVATPQLPAVRHLLGTFSFYLEELGDAREHFLEVARKDPGNLNAWANLAHVYGQLGQEEEEEASAGRLASLMGLEGDPEDAGDPRLRAARCLAEQGYAHGFDVGCASPEERAQVLEAGIALYDKALGYGQQIPIEEKRSWYFTMATLFIRLDGIFLEMGSEEQKRLPAFNRTLALLGEVLKSSDSRHQALAWCYVGMLLERKDTFSTTPMGVHEYGYSGTEPLDCFGKAIEIAKNQPPILNRLAKIFHFLGKQDMAVGTCNMVLAVLTDPELNWQAYCTRAKVRIRAYVHDLERAKVGLGGLPDRNHLACAKADLEEVVKVCPSLRTYLDISQVYYYMGVDAMRELLAVDEAALNQALVFLAKAGELELGDTLPELQLLRGKCLRVQGEDANAAACFKRAVELDDEGSSHTEGFGCLLEALLAQWSQAQLSDGEVGYEVDVWLRHAQGKYPAARLRQELQRVWRGHTEEVLGLARALVAQGRPALVRLLFETMEHEGEDAGGSGKSRVSS
modifications: full-length
B4: Q8C5N3 (protein, UniProt Q8C5N3 1-908, looked up)
chain: MKSSVAHMKSSGHNRRETHSSYRRSSSPEDRYTEQERSPRDRGYSDYSRSDYERSRRGYSYDDSMESRSRDREKRRERERDADHRKRSRKSPSPDRSPARGGGQSSPQEEPTWKKKKDELDPLLTRTGGAYIPPAKLRMMQEQITDKSSLAYQRMSWEALKKSINGLINKVNISNISIIIQELLQENIVRGRGLLSRSVLQAQSASPIFTHVYAALVAIINSKFPQIGELILKRLILNFRKGYRRNDKQLCLTASKFVAHLINQNVAHEVLCLEMLTLLLERPTDDSVEVAIGFLKECGLKLTQVSPRGINAIFERLRNILHESEIDKRVQYMIEVMFAVRKDGFKDHPVILEGLDLVEEDDQFTHMLPLEDDYNPEDVLNVFKMDPNFMENEEKYKAIKKEILDEGDSDSNTDQGAGSSEDEEEEDEEEEGEDEEGGQKVTIHDKTEINLVSFRRTIYLAIQSSLDFEECAHKLLKMEFAESQTKELCNMILDCCAQQRTYEKFFGLLAGRFCMLKKEYMESFESIFKEQYDTIHRLETNKLRNVAKMFAHLLYTDSLPWSVLECIKLSEETTTSSSRIFVKIFFQELCEYMGLPKLNARLKDETLQPFFEGLLPRDNPRNTRFAINFFTSIGLGGLTDELREHLKNTPKVIVAQKPEAEQKKPALTSSSSESSSASDSSDSESDSSESSSESSSDASDSSSSSSTQSSTSGITAHSAKGTRKKRQGKARGEEVDKLARGHQALERRREGGREDQRHQEGRTERARSERRRAQNSRDADWRDPLAKHIDDRSHENSHSRVGNGREQGSHREPEDRHGEPKKRRERRDSFSENEKQRSRNQDSDNVRRKDRSKSRERSRRHSGHKGDDARCQNSAERRWEKPGRRPEQSRESKRSQDRRREKSPTTQK
modifications: full-length
B5: Q8BZ20 (protein, UniProt Q8BZ20 1-711, looked up)
chain: MAQAAVAVAEVTQLLCAAGGALELAELRRRLRTSLGTDALERLLRDCGRFVVASRAVVAVGAGREAAAAASERLVLAVSSLRLCRAHQGPKPGCTGLCAQLHLCKFLIYGNCKFLKTGKNCRNGHNLKTDHNLSVLRTHGVDHLTYTELCQLLLQNDPSLLPDICLHYNKGDGPFGSCSFQKQCIKLHICQYFLQGECKFGTSCKRSHEFTNSESLEQLERLGLSSDLVSRLLSTYRNAYDIKNKGSALSKVSPSPAGPQGSSERKDSSGPVSPGTPSQEESEQICLYHIRKSCSFQEKCHRVHFHLPYRWQFLDGGKWKDLDNMELIEEAYSNPSKDRIVYTESAAGFHFDNLDFNSMKFGNTLARRLSTASSVTKPPHFILTTDWIWYWMDEFGSWQEYGRQGSGHPVTTISSSDVERAYLAFCAPGADAQAATLKFQAGKHNYELHFKAFLQKNLVYGTIRKVCRRPKYVSPQDVQMKQSCNTKLHGPKSIPDYWDPAALPDLGFKKITLSSSSEEYQKVWNIFNRTLPFYFVQKIERIQNMGLWEVYQWQKCQMQKQNGGKEVDERQLFHGTSANFVDAICQQNFDWRVCGLHGTSYGKGSYFARDAAYSHHYSKSDTHSHMMFLARVLVGDFVRGSTSFVRPPAKEGQSNAFYDSCVNSMSDPTIFVVFEKHQVYPEYLIQYSTSSKPPASPSIFVALGNLFTSRQ
modifications: full-length
B6: Q8BW75 (protein, UniProt Q8BW75 1-520, looked up)
chain: MSNKSDVIVVGGGISGMAAAKLLHDCGLSVVVLEARDRVGGRTYTIRNKNVKYVDLGGSYVGPTQNRILRLAKELGLETYKVNEVERLIHFVKGKSYAFRGPFPPVWNPITYLDNNNLWRTMDEMGQEIPSDAPWKAPLAEEWDYMTMKELLDKICWTKSTKQIATLFVNLCVTAETHEVSALWFLWYVKQCGGTTRIISTTNGGQERKFIGGSGQVSERIKDILGDRVKLERPVIHIDQTGENVIVKTLNHEIYEAKYVISAIPPALGMKIHYSPPLPMLRNQLISRVPLGSVIKCMVYYKEPFWRKKDFCGTMVIEGEEAPIAYTLDDTKPDGTYAAIMGFILAHKARKLVRLTKEERLRKLCELYAKVLNSQEALQPVHYEEKNWCEEQYSGGCYTTYFPPGILTQYGRVLRQPVGKIFFAGTETASHWSGYMEGAVEAGERAAREILHAIGKIPEDEIWQPEPESLDVPARPITSTFLERHLPSVPGLLKLFGLTTILSATALGFLAHKRGLFVHF
modifications: full-length

What follows are molecules tested on intracellular proteome of ENR+CD and ENR organoids (assay: LC-MS/MS TMT proteomics of ENR+CD versus ENR organoids). Conditions: ENR+CD versus ENR organoids, sample pairs in aggregate (n=4, 2 technical replicates from two biological donors).
Assay type: cell-based, C57BL/6 mice

Molecule | Average logFC
B1 | −1.21
B2 | −1.79
B3 | −1.177
B4 | −1.281
B5 | 1.138
B6 | −1.176

Same assay, conditions: protein abundance ratio ENR+CD versus ENR organoids, sample pair M1-1; LC-MS/MS TMT proteomics

Molecule | M1-1 Log2 Median Normalized
B1 | −1.302
B2 | −1.411
B3 | −0.633
B4 | −1.581
B5 | 1.138
B6 | −0.94

Same assay, conditions: protein abundance ratio ENR+CD versus ENR organoids, sample pair M1-2; LC-MS/MS TMT proteomics

Molecule | M1-2 Log2 Median Normalized
B1 | −0.76
B2 | −1.637
B3 | −1.446
B4 | −0.922
B5 | 0.69
B6 | −1.056

Same assay, conditions: protein abundance ratio ENR+CD versus ENR organoids, sample pair M2-1; LC-MS/MS TMT proteomics

Molecule | M2-1 Log2 Median Normalized
B1 | −1.9525
B2 | −1.8825
B3 | −1.1765
B4 | −0.9735
B5 | 1.1465
B6 | −1.8625

Same assay, conditions: protein abundance ratio ENR+CD versus ENR organoids, sample pair M2-2; LC-MS/MS TMT proteomics

Molecule | M2-2 Log2 Median Normalized
B1 | −0.825
B2 | −2.231
B3 | −1.271
B4 | −1.648
B5 | 1.295
B6 | −1.177

Same assay, conditions: up = enriched in ENR+CD, down = enriched in ENR; FDR<0.05 and log fold change cut-off

Molecule | change
B1 | down
B2 | down
B3 | down
B4 | down
B5 | up
B6 | down
